The results in this text go back to patent CN111171151A (FOSHAN CANTON BIOTECHNOLOGY CO LTD; UNIV JINAN, dated 2020).

Experiment [1] has as its target T1, EGFR-ECD 3 重组蛋白 (EGFR胞外段结构域3) (UniProt P00533 334-504, limits assumed).
T1 construct: domain: EGFR胞外段结构域3 (EGFR-ECD 3); Secreted from transiently transfected 293F cells (pCMV-EGFR-ECD3) and purified on a nickel column; also called EGFR胞外段的CD3区域片段; EGFR-ECD 3 纯化蛋白; not shown: purified on a nickel column, detected with anti
The experiment is described as follows: ELISA, coated proteins 100 ng/well (EGFR-ECD3 against EGF, bFGF, Her2), anti-HA detection.

Experiment [2] addresses T1, EGFR-ECD 3 重组蛋白 (EGFR胞外段结构域3). Briefly: ELISA, coated EGFR-ECD3 100 ng/well, NbH3 from 40 μg/mL in 1:2 dilutions. For orientation: ELISA stands for enzyme-linked immunosorbent assay.

B1: 抗EGFR纳米抗体 Nb H3 (VHH)
VHH: QVQLQESGGGSVQAGGSLNLSCAVSGYTGCKNGMSWYRQAPGKEREFVSGIDRDGSPSYADSVKGRFTISQDNAKNIVFLQMNSLRPEDTAMYYCATNPQRNIYGGSWCNYWGQGTQVTVSS
notes: From a Bactrian camel immunised with EGFR-ECD3; expressed in E. coli WK6 from the pComb-3X plasmid and purified on a nickel column; not shown: tags from the pComb-3X vector (purified on a nickel column, detected with anti-H)
As usually defined, the EC50 is the concentration needed to bring the measured effect to its halfway point. As for B1, the “ratio of binding (OD) against the other control proteins” value in experiment [1] was above 2. This molecule also came in with an EC50 in experiment [2] of 8.76 µg/mL.
